# Reference: patent US10603364B2, “Lysosomal targeting and uses thereof” (Shire Human Genetic Therapies, Inc., priority 2014, dated 2020)
# Experiments:
# Type in all cases: in vivo
# Naglu KO mice [1] = experiment: Total glycosaminoglycan (GAG) in liver and brain, dimethylmethylene blue; details: intrathecal, 520 mg/kg brain; brain significant in 2× and 3× weekly groups
# Procedure: (§1) To evaluate the in vivo activity of Naglu-SPP and its efficacy as a therapeutic for the treatment of lysosomal storage diseases, particularly San B, Naglu-SPP was administered to Naglu KO mice via intrathecal injection. Intrathecal administration of Naglu-IGFII served as a positive control. The experimental conditions used for this assay are described in Tables 10 and 11 below.
# The activity of Naglu-SPP and Naglu-IGFII in vivo was also evaluated by examining the intracellular accumulation of natural substrates of Naglu in treated mice. One such assay was designed to evaluate the total concentration of glycosaminoglycan (GAG) in liver (FIG. 11A) and brain (FIG. 11B) tissue of treated mice in accordance with de Jong et al. (Clin Chem 38(6):803-807, 1992). Briefly, liver tissue was homogenized and total GAG quantified using dimethylmethylene blue. Brain tissue was homogenized and then incubated with pronase and benzonase to break down protein and nucleic acid. Total GAG was then extracted by passing the brain homogenate through a DEAE column. The eluate was further buffer exchanged through a desalting column, and the total GAG content was quantified using dimethylmethylene blue. […] The reduction of total GAG amount in brain tissue was significant in the 2× weekly as well as the 3× weekly treatment groups.
# Naglu KO mice [2] = experiment: Sanfillipo B specific biomarkers in brain by LC/MS; details: intrathecal, 520 mg/kg brain, especially 2× weekly and 3× weekly
# Procedure: as §1
# Using the same LC/MS technology as used for the quantification of heparin sulfate (see above), the presence of Sanfillipo B specific biomarkers in brains of treated KO mice were evaluated. Naglu deficiency causes the accumulation of certain heparin sulfate degradation products (presented in FIGS. 13A-C) which are natural substrates of Naglu. These biomarkers are the most relevant indications for Naglu deficiency.
# Naglu KO mice [3] = experiment: Heparan sulfate in brain by LC/MS; details: intrathecal, 520 mg/kg brain, 2× weekly and 3× weekly
# Procedure: as §1
# In a second assay, we evaluation the total amount of heparan sulfate in the brain of treated KO mice. […] To measure heparan sulfate in mouse brain tissue, a highly sensitive LC/MS method was applied (Lawrence et al, 2012, Nat Chem Biol. 2012 Jan. 8; 8(2):197-204). Briefly, total GAG from brain tissue was extracted by a DEAE column and a desalting column, and then dried and weighted. The extracted GAG was treated with heparin lyases that specifically release unique mono, di and tri saccharides of heparan sulfate, and the sample was then analyzed by LC/MS. The released saccharides were identified and quantified using commercially available saccharide standards of heparan sulfate degradation.
molecule,measurement,setting,value
"Naglu-SPP: Fusion protein of human Naglu and SORT1 propeptide (SPP) via GAG3 linker; SEQ ID NO:17 (full-length), SEQ ID NO:22 (protein) MEAVAVAAAVGVLLLAGAGGAAGDEAREAAAVRALVARLLGPGPAADFSVSVERALAAKPGLDTYSLGGGGAARVRVRGSTGVAAAAGLHRYLRDFCGCHVAWSGSQLRLPRPLPAVPGELTEATPNRYRYYQNVCTQSYSFVWWDWARWEREIDWMALNGINLALAWSGQEAIWQRVYLALGLTQAEINEFFTGPAFLAWGRMGNLHTWDGPLPPSWHIKQLYLQHRVLDQMRSFGMTPVLPAFAGHVPEAVTRVFPQVNVTKMGSWGHFNCSYSCSFLLAPEDPIFPIIGSLFLRELIKEFGTDHIYGADTFNEMQPPSSEPSYLAAATTAVYEAMTAVDTEAVWLLQGWLFQHQPQFWGPAQIRAVLGAVPRGRLLVLDLFAESQPVYTRTASFQGQPFIWCMLHNFGGNHGLFGALEAVNGGPEAARLFPNSTMVGTGMAPEGISQNEVVYSLMAELGWRKDPVPDLAAWVTSFAARRYGVSHPDAGAAWRLLLRSVYNCSGEACRGHNRSPLVRRPSLQMNTSIWYNRSDVFEAWRLLLTSAPSLATSPAFRYDLLDLTRQAVQELVSLYYEEARSAYLSKELASLLRAGGVLAYELLPALDEVLASDSRFLLGSWLEQARAAAVSEAEADFYEQNSRYQLTLWGPEGNILDYANKQLAGLVANYYTPRWRLFLEALVDSVAQGIPFQQHQFDKNVFQLEQAFVLSKQRYPSQPRGDTVDLAKKIFLKYYPRWVAGSWGAPGGGGGAAAAAGGGGGGAPGGGGGAAAAAGGGGGGAPGGGGGAAAAAGGGGGGAPQDRLDAPPPPAAPLPRWSGPIGVSWGLRAAAAGGAFPRGGRWRR",total GAG concentration in liver and brain tissue vs vehicle control,Naglu KO mice [1],significant reduction
same,accumulation of three GAG cleavage products (San B biomarkers) in brain,Naglu KO mice [2],dramatic decrease
same,total amount of heparan sulfate accumulation in brain tissue,Naglu KO mice [3],strong reduction
